Assay [1] addresses T1, PSMA Fab (biotinylated (site not stated)).
T1 construct: also called Anti-PSMA Fab; 006 PSMA Fab
Put plainly: clonal phage ELISA on captured PSMA Fab; competitor: PSMA antigen at saturating concentration.

In assay [2] the target is T1, PSMA Fab. Put plainly: clonal phage ELISA on biotinylated PSMA Fab captured on neutravidin plate, anti-M13 HRP detection; no PSMA antigen.
Method: (§1) Clonal phage were harvested as crude supernatants and screened via standard ELISAs. […] Prior to the addition of clonal phage. wells were incubated with blocking buffer and PSMA antigen or blocking buffer alone. Without washing or aspirating, clonal phage supernatants were then added to the wells and incubated for a short time. Wells were then washed followed by detection of bound phage using a horse radish conjugated anti-M13 antibody.
Assay [3] concerns the target T2, Anti-PSMA Fab.
T2 construct: Biotinylated and captured on neutravidin coated plates in the phage ELISA; also called 006 PSMA Fab
As to the kind of experiment: clonal phage ELISA on captured PSMA Fab pre-incubated with PSMA antigen as competitor, anti-M13 HRP detection.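 Further: crude clonal phage supernatants tested by ELISA, wells first treated with blocking buffer plus PSMA antigen, bound phage read out via HRP-linked anti-M13 antibody.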
Method: as §1

In assay [4] the target is T2, Anti-PSMA Fab. Put plainly: clonal phage ELISA on biotinylated PSMA Fab captured on neutravidin plate, anti-M13 HRP detection, blocking buffer alone.
Method: as §1
Assay [5] deals with T3, PSMA Fab (biotinylated (site not stated)).
T3 construct: Biotinylated PSMA Fab captured on neutravidin coated plates in the phage ELISA; also called Anti-PSMA Fab; 006 PSMA Fab
As to the kind of experiment: clonal phage ELISA on PSMA Fab pre-incubated with PSMA antigen as competitor.

Assay [6] addresses T3, PSMA Fab. As to the kind of experiment: clonal phage ELISA, biotinylated PSMA Fab on neutravidin plate, anti-M13 HRP detection.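 Further: crude clonal phage supernatants added to wells pretreated with blocking buffer either with or without PSMA antigen, bound phage read after washing.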
Method: as §1

Where no end group is shown, it is not given here.

As to TEQICKPAWMCTGL [Phage-3512], the “phage binding ELISA signal” value with PSMA Fab [1] turned out to be 0.0536; with PSMA Fab [2], 1.69.

As to VGHMCKPVWMCAGL [Phage-3511], the figures for the “phage binding ELISA signal” value with PSMA Fab [1] and with PSMA Fab [2] were 0.101 and 1.69, respectively.

B1: Phage-3502 (peptide)
peptide: WLYSCIPQWMCTGF
modifications: cysteine pairing not given here; also: fused to pIII of bacteriophage, pIII and linker not given here
notes: Peptide-180 library clone, tested as clonal phage supernatant with the peptide fused to pIII of the bacteriophage
As for B1, in the assay with Anti-PSMA Fab [3], the “Phage binding ELISA signal, Anti-PSMA Fab with PSMA antigen” value stood at 0.127. For the same molecule, in the assay with Anti-PSMA Fab [4], the “Phage binding ELISA signal, Anti-PSMA Fab” value stood at 1.7.

For the molecule LTQMCKPLWMCAGF [Phage-3506], the entries for the “phage binding ELISA signal” value in the assay with PSMA Fab [1] and in the assay with PSMA Fab [2] were 0.0786 and 1.69, respectively.

Consider SVTTCIPPWMCTGF [Phage-3513], for which the “phage binding ELISA signal” value in the assay with PSMA Fab [1] was 0.0979; with PSMA Fab [2], 1.69.

B2: Phage-3492 (peptide)
peptide: DILRCVPEWMCTGF
modifications: cysteine pairing not given here; also: fused to pIII of bacteriophage, pIII and linker not given here
notes: as for B1
Regarding B2, the “Phage binding ELISA signal, Anti-PSMA Fab with PSMA antigen” value with Anti-PSMA Fab [3] was 0.0911. Further, the “Phage binding ELISA signal, Anti-PSMA Fab” value with Anti-PSMA Fab [4] is 1.71.

B3: Phage-3487 (peptide)
peptide: PVAVCKPAWMCEGF
notes: tested as crude clonal phage supernatant
As for B3, the “Phage binding ELISA signal, Anti-PSMA Fab with PSMA antigen” value with PSMA Fab [5] came to 0.0982. In addition, the “Phage binding ELISA signal, Anti-PSMA Fab” value with PSMA Fab [6] was 1.72.

B4: Phage-3497 (peptide)
peptide: VDRICKPDWMCAGF
modifications: cysteine pairing not given here; also: fused to pIII of bacteriophage, pIII and linker not given here
notes: as for B1
For the molecule B4, in the assay with Anti-PSMA Fab [3], the “Phage binding ELISA signal, Anti-PSMA Fab with PSMA antigen” value turned out to be 0.091. Besides, the “Phage binding ELISA signal, Anti-PSMA Fab” value with Anti-PSMA Fab [4] was determined as 1.7.

B5: Phage-3490 (peptide)
peptide: VNMICKPAWMCKGF
modifications: cysteine pairing not given here; also: fused to pIII of bacteriophage, pIII and linker not given here
notes: as for B1
As to B5, the “Phage binding ELISA signal, Anti-PSMA Fab with PSMA antigen” value with Anti-PSMA Fab [3] was 0.0872. The “Phage binding ELISA signal, Anti-PSMA Fab” value with Anti-PSMA Fab [4] stood at 1.71.

Consider ADIYCKPVWMCTGF [Phage-3510], for which the “phage binding ELISA signal” value with PSMA Fab [1] came out at 0.0909; with PSMA Fab [2] it was 1.69.

B6: Phage-3488 (peptide)
peptide: ITQMCKPAWMCVGL
notes: as for B3
Take B6: in the assay with PSMA Fab [5], the “Phage binding ELISA signal, Anti-PSMA Fab with PSMA antigen” value came to 0.123. For the same molecule, the “Phage binding ELISA signal, Anti-PSMA Fab” value with PSMA Fab [6] came out at 1.72.

Turning to IEIRCKPEWMCTSF [Phage-3505], the entries for the “phage binding ELISA signal” value in the assay with PSMA Fab [1] and with PSMA Fab [2] were 0.0708 and 1.7, respectively.

B7: Phage-3483 (peptide)
peptide: ITPACVPEWMCLGL
notes: as for B3
For the molecule B7, in the assay with PSMA Fab [5], the “Phage binding ELISA signal, Anti-PSMA Fab with PSMA antigen” value is 0.0774. The “Phage binding ELISA signal, Anti-PSMA Fab” value with PSMA Fab [6] was 1.72.

B8: Phage-3484 (peptide)
peptide: AERMCVPSWMCQGL
notes: as for B3
As for B8, in the assay with PSMA Fab [5], the “Phage binding ELISA signal, Anti-PSMA Fab with PSMA antigen” value was 0.0943. Also, in the assay with PSMA Fab [6], the “Phage binding ELISA signal, Anti-PSMA Fab” value stood at 1.72.

Regarding VDHRCVPSWMCYGL [Phage-3508], the “phage binding ELISA signal” value is 0.0745 in the assay with PSMA Fab [1] and 1.69 with PSMA Fab [2].

B9: Phage-3486 (peptide)
peptide: YSQMCKPAWMCNGF
notes: as for B3
With B9, the “Phage binding ELISA signal, Anti-PSMA Fab with PSMA antigen” value in the assay with PSMA Fab [5] worked out at 0.101. For the same molecule, the “Phage binding ELISA signal, Anti-PSMA Fab” value with PSMA Fab [6] is 1.72.

B10: Phage-3496 (peptide)
peptide: QDMVCRPAWMCTGF
modifications: cysteine pairing not given here; also: fused to pIII of bacteriophage, pIII and linker not given here
notes: as for B1
With B10, the “Phage binding ELISA signal, Anti-PSMA Fab with PSMA antigen” value with Anti-PSMA Fab [3] is 0.0848. Moreover, the “Phage binding ELISA signal, Anti-PSMA Fab” value with Anti-PSMA Fab [4] was found to be 1.7.

B11: Phage-3498 (peptide)
peptide: TVHYCTPSWMCTGF
modifications: cysteine pairing not given here; also: fused to pIII of bacteriophage, pIII and linker not given here
notes: as for B1
Regarding B11, in the assay with Anti-PSMA Fab [3], the “Phage binding ELISA signal, Anti-PSMA Fab with PSMA antigen” value was 0.0866. Also, the “Phage binding ELISA signal, Anti-PSMA Fab” value with Anti-PSMA Fab [4] turned out to be 1.7.

B12: Phage-3485 (peptide)
peptide: EAIRCVPVWMCQGF
notes: as for B3
Turning to B12, the “Phage binding ELISA signal, Anti-PSMA Fab with PSMA antigen” value in the assay with PSMA Fab [5] was 0.0989. The “Phage binding ELISA signal, Anti-PSMA Fab” value with PSMA Fab [6] is 1.72.

In the case of EYMRCEPSWMCYGF [Phage-3509], the figures for the “phage binding ELISA signal” value with PSMA Fab [1] and with PSMA Fab [2] were 0.0584 and 1.69, respectively.

Turning to NIIHCVPPWMCDGF [Phage-3504], the “phage binding ELISA signal” value was 0.0795 in the assay with PSMA Fab [1] and 1.7 with PSMA Fab [2].

B13: Phage-3500 (peptide)
peptide: YDHFCVPRWMCEGL
modifications: cysteine pairing not given here; also: fused to pIII of bacteriophage, pIII and linker not given here
notes: as for B1
As for B13, the “Phage binding ELISA signal, Anti-PSMA Fab with PSMA antigen” value with Anti-PSMA Fab [3] is 0.0592. Also, in the assay with Anti-PSMA Fab [4], the “Phage binding ELISA signal, Anti-PSMA Fab” value was 1.7.

B14: Phage-3489 (peptide)
peptide: LDRMCVPLWMCEGF
notes: as for B3
Regarding B14, the “Phage binding ELISA signal, Anti-PSMA Fab with PSMA antigen” value with PSMA Fab [5] came out at 0.0991. Also, the “Phage binding ELISA signal, Anti-PSMA Fab” value in the assay with PSMA Fab [6] stood at 1.71.

Regarding AEPVCVPDWMCFGF [Phage-3507], the “phage binding ELISA signal” value in the assay with PSMA Fab [1] is 0.103; in the assay with PSMA Fab [2], 1.69.

B15: Phage-3494 (peptide)
peptide: DYMMCSPDWMCKGF
modifications: cysteine pairing not given here; also: fused to pIII of bacteriophage, pIII and linker not given here
notes: as for B1
Regarding B15, the “Phage binding ELISA signal, Anti-PSMA Fab with PSMA antigen” value in the assay with Anti-PSMA Fab [3] was found to be 0.0722. For the same molecule, in the assay with Anti-PSMA Fab [4], the “Phage binding ELISA signal, Anti-PSMA Fab” value was 1.7.

B16: Phage-3481 (peptide)
peptide: DTIACRPEWMCTGF
notes: as for B3
As to B16, the “Phage binding ELISA signal, Anti-PSMA Fab with PSMA antigen” value with PSMA Fab [5] came to 0.0607. In addition, in the assay with PSMA Fab [6], the “Phage binding ELISA signal, Anti-PSMA Fab” value was 1.72.

B17: Phage-3491 (peptide)
peptide: LEMVCKPEWMCLGL
modifications: cysteine pairing not given here; also: fused to pIII of bacteriophage, pIII and linker not given here
notes: as for B1
B17: the “Phage binding ELISA signal, Anti-PSMA Fab with PSMA antigen” value with Anti-PSMA Fab [3] worked out at 0.0996. Moreover, in the assay with Anti-PSMA Fab [4], the “Phage binding ELISA signal, Anti-PSMA Fab” value is 1.71.

B18: Phage-3482 (peptide)
peptide: YFKHCVPQWMCEGF
notes: as for B3
B18: in the assay with PSMA Fab [5], the “Phage binding ELISA signal, Anti-PSMA Fab with PSMA antigen” value was 0.146. Also, the “Phage binding ELISA signal, Anti-PSMA Fab” value in the assay with PSMA Fab [6] is 1.72.

B19: Phage-3499 (peptide)
peptide: THPLCVPTWMCSGF
modifications: cysteine pairing not given here; also: fused to pIII of bacteriophage, pIII and linker not given here
notes: as for B1
Regarding B19, the “Phage binding ELISA signal, Anti-PSMA Fab with PSMA antigen” value with Anti-PSMA Fab [3] turned out to be 0.0862. For the same molecule, in the assay with Anti-PSMA Fab [4], the “Phage binding ELISA signal, Anti-PSMA Fab” value is 1.7.

B20: Phage-3495 (peptide)
peptide: SMAWCVPNWMCTGF
modifications: cysteine pairing not given here; also: fused to pIII of bacteriophage, pIII and linker not given here
notes: as for B1
Regarding B20, the “Phage binding ELISA signal, Anti-PSMA Fab with PSMA antigen” value with Anti-PSMA Fab [3] worked out at 0.0897. Moreover, the “Phage binding ELISA signal, Anti-PSMA Fab” value with Anti-PSMA Fab [4] was determined as 1.7.

B21: Phage-3501 (peptide)
peptide: PLRYCEPAWMCFGF
modifications: cysteine pairing not given here; also: fused to pIII of bacteriophage, pIII and linker not given here
notes: as for B1
For B21, in the assay with Anti-PSMA Fab [3], the “Phage binding ELISA signal, Anti-PSMA Fab with PSMA antigen” value was 0.0601. Moreover, the “Phage binding ELISA signal, Anti-PSMA Fab” value with Anti-PSMA Fab [4] was found to be 1.7.

B22: Phage-3503 (peptide)
peptide: EAPACVPVWMCNGF
modifications: cysteine pairing not given here; also: fused to pIII of bacteriophage, pIII and linker not given here
notes: as for B1
For B22, the “Phage binding ELISA signal, Anti-PSMA Fab with PSMA antigen” value with Anti-PSMA Fab [3] turned out to be 0.0778. In addition, the “Phage binding ELISA signal, Anti-PSMA Fab” value with Anti-PSMA Fab [4] was 1.7.

B23: Phage-3493 (peptide)
peptide: YPTWCVPTWMCTGM
modifications: cysteine pairing not given here; also: fused to pIII of bacteriophage, pIII and linker not given here
notes: as for B1
As for B23, the “Phage binding ELISA signal, Anti-PSMA Fab with PSMA antigen” value with Anti-PSMA Fab [3] was 0.0716. In addition, the “Phage binding ELISA signal, Anti-PSMA Fab” value with Anti-PSMA Fab [4] amounted to 1.71.

The values are drawn from patent US20260242478A1 (published 2026).
